Data on 1 compound can be found in patent US20100081799A1, “Chelating Agent” (priority 2006, published 2010).

A short description of data set [1]: in vivo. Details: species or system mice. The note with it: female, nude, mouse, iv, 38 uCi, total radioactivity. The procedure:
(§1) Animal experiments. Due to its high sst2-somatostatin receptor expression, the rat pancreatic tumor cell line AR42J was used as a tumor model.^55 To establish tumor growth, cells were detached from the surface of the culture flasks using 1 mM EDTA in PBS, centrifuged and re-suspended in serum-free culture medium (RPMI-1640, Biochrom, Berlin, Germany). Concentration of the cell suspension was 3.7×10^6 cells/100 μL serum. Nude mice (female, 6-8 weeks) were injected 100 μL of the cell suspension subcutaneously into the flank.
(§2) For biodistribution studies, mice were intravenously injected 38 μCi [^68Ga]19 (corresponding to 0.15 μg of peptide) in 100 μL PBS into the tail vein. Non-specific tissue accumulation of the radioligand was determined by coinjection of an excess of cold competitor (20 μg Tyr^3-octreotide/mouse). At different time points after radioligand injection (30 and 60 min p.i.) mice (n=5 per time point; n=3 for blocking study at 60 min p.i.) were sacrificed and dissected. The organs of interest were removed, weighed and counted in a […] (Wallach, Turku, Finland). Data are expressed as percent injected dose per gram tissue (% iD/g).

Data set [2] has as its system AR42J tumor bearing nude mice. The experiment in a line: in vivo. The note with it: mouse. The procedure:
as §1, §2

The mark [3] stands for this setting: blood concentration of the radioligand.

SMILES strings stand for the structures.

Consider `CC(=NOCC(=O)N[C@H](Cc1ccccc1)C(=O)N[C@H]1CSSC[C@@H](C(=O)N[C@H](C(=O)O)[C@@H](C)O)NC(=O)[C@H]([C@@H](C)O)NC(=O)[C@H](CCCCN)NC(=O)[C@@H](Cc2c[nH]c3ccccc23)NC(=O)[C@H](Cc2ccc(O)cc2)NC1=O)c1ccc(C(C(=O)O)N2CCN(CC(=O)O)CCN(CC(=O)O)CCN(CC(=O)O)CC2)cc1` (stereo partly shown) [[^68Ga]19, metal not drawn], for which the tissue uptake at 0.5 h in data set [1] (setting [3]) was 2.37 ± 0.35 %ID/g; in data set [1] (kidney accumulation) it was 20 ± 2.4 %ID/g; in data set [1] (tumor accumulation), 7.73 ± 1.52 %ID/g. For the same compound, the values for the tissue uptake at 1 h in data set [1] (setting [3]), in data set [1] (kidney accumulation) and in data set [1] (tumor accumulation) were 1.71 ± 0.17 %ID/g, 11.9 ± 1.9 %ID/g and 7.46 ± 1.3 %ID/g, respectively. For the same compound, the “tumor/organ ratios (change)” value in data set [2] was “increasing tumor/organ ratios”.
